We go through ten molecules from article PMC7442826, “The mechanism of activation of the actin binding protein EHBP1 by Rab8 family members” (Nature Communications, 2020).

B1: EHBP1 CH (calponin homology) domain (domain or fragment, human)
chain: GRKPNASQSLLVWCKEVTKNYRGVKITNFTTSWRNGLSFCAILHHFRPDLIDYKSLNPQDIKENNKKAYDGFASIGISRLLEPSDMVLLAIPDKLTVMTYLYQIRAHFSGQ
notes: EHBP1 central CH domain, human; also called CH domain; CH^EHBP1
B5: Rab8a_(1-176) (human Rab8a G-domain) (domain or fragment, UniProt P61006 1-176, looked up)
chain: MAKTYDYLFKLLLIGDSGVGKTCVLFRFSEDAFNSTFISTIGIDFKIRTIELDGKRIKLQIWDTAGQERFRTITTAYYRGAMGIMLVYDITNEKSFDNIRNWIRNIEEHASADVEKMILGNKCDVNDKRQVSKERGEKLALDYGIKFMETSAKANINVENAFFTLARDIKAKMDKK
notes: Rab8a G-domain, human, residues 1-176; in the stopped-flow assays to the fluorescent mantGppNHp (non-covalent); also called GppNHp Rab8a_(1-176); Rab8a_(GppNHp); source: preparatively loaded with GppNHp or mantGppNHp
B8: EHBP1 bMERB domain (bMERB_(1060-1212), full-length bMERB domain) (domain or fragment)
chain: not shown
notes: EHBP1 bMERB domain, human, residues 1060-1212, all three predicted helices; PDB 6ZSI and 6ZSJ hold the M1116A and F1120A mutants of the full-length bMERB domain; also called bMERB^EHBP1; full-length construct

What all share (conditions): both partners purified
Assay [1] deals with B8. In words: ITC; 600–800 µM CH domain titrated into 40–60 µM bMERB domain; 20 mM Hepes 7.5, 150 mM NaCl, 1 mM TCEP; 25 °C; one-site-binding model.
Assay [2] has as its target F-actin (rabbit skeletal muscle actin, polymerized) (rabbit, UniProt P68135 1-377). The assay can be described thus: co-sedimentation; 10 µM F-actin with 0–60 µM EHBP1 CH domain, 1 h RT; 5 mM Tris-HCl pH 7.5, 0.18 mM CaCl2, 15 mM KCl, 1 mM DTT, 1.8 mM NaN3; 100,000 g 1 h 4 °C; densitometry of SDS-PAGE.
Assay [3] addresses B8. In words: stopped-flow fluorescence kinetics; association: 0.5 µM Cy3 labeled CH domain with 2–16 µM full-length bMERB domain; koff from the y-axis intercept; CH buffer, 25 °C.
Assay [4] deals with B8. The assay can be described thus: stopped-flow fluorescence kinetics; dissociation: complex of Cy3 labeled CH with full-length bMERB domain (2 µM) mixed with a 20-fold excess of unlabeled CH domain; CH buffer.
The target in assay [5] is B1. In words: ITC; 600–800 µM CH domain titrated into 40–60 µM bMERB domain; 20 mM Hepes 7.5, 150 mM NaCl, 1 mM TCEP; 25 °C; one-site-binding model. Background: Isothermal titration calorimetry measures the heat released or taken up as one component is titrated into another.
Assay [6] addresses T1, EHBP1 bMERB domain L1156S (human, UniProt Q8NDI1-1 1060-1212, L1156S).
T1 construct: EHBP1 bMERB domain, human, residues 1060-1212 as the wild-type construct; numbers on isoform 1 (Q8NDI1-1); source: E. coli BL21 DE3-RIL, purified
The assay can be described thus: ITC; 500 µM GppNHp Rab titrated into 50 µM bMERB domain; 20 mM Hepes 7.5, 50 mM NaCl, 1 mM MgCl2, 1 mM TCEP; 25 °C; one-site-binding model.

Assay [7] addresses T2, EHBP1 bMERB domain L1179S (human, UniProt Q8NDI1-1 1060-1212, L1179S).
T2 construct: EHBP1 bMERB domain, human, residues 1060-1212 as the wild-type construct; numbers on isoform 1 (Q8NDI1-1); source: E. coli BL21 DE3-RIL, purified
Described as above.

For assay [8], the target named is T3, EHBP1 bMERB domain L1182S (human, UniProt Q8NDI1-1 1060-1212, L1182S).
T3 construct: EHBP1 bMERB domain, human, residues 1060-1212 as the wild-type construct; numbers on isoform 1 (Q8NDI1-1); source: E. coli BL21 DE3-RIL, purified
T3 sequence (Q8NDI1 1060-1212 L1182S): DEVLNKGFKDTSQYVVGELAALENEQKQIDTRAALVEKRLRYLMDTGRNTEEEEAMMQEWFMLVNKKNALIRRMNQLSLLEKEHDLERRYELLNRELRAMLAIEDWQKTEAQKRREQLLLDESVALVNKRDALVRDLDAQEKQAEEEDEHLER
The assay is described as above.

The target in assay [9] is T4, EHBP1 bMERB domain V1186A (human, UniProt Q8NDI1-1 1060-1212, V1186A).
T4 construct: EHBP1 bMERB domain, human, residues 1060-1212 as the wild-type construct; numbers on isoform 1 (Q8NDI1-1); source: E. coli BL21 DE3-RIL, purified
T4 sequence (Q8NDI1 1060-1212 V1186A): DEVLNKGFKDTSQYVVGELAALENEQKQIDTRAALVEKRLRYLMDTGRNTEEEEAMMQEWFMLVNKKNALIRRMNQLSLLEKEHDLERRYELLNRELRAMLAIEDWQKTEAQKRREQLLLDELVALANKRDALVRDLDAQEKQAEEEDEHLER
The assay is described as above.

The target in assay [10] is T5, EHBP1 bMERB domain N1187A (human, UniProt Q8NDI1-1 1060-1212, N1187A).
T5 construct: EHBP1 bMERB domain, human, residues 1060-1212 as the wild-type construct; numbers on isoform 1 (Q8NDI1-1); source: E. coli BL21 DE3-RIL, purified
T5 sequence (Q8NDI1 1060-1212 N1187A): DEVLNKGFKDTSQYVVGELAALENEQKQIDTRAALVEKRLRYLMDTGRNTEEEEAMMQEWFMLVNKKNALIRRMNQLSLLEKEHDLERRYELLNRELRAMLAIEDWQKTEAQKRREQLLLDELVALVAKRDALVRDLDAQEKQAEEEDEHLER
The assay is described as above.

In assay [11] the target is T6, EHBP1 bMERB domain R1189A (human, UniProt Q8NDI1-1 1060-1212, R1189A).
T6 construct: EHBP1 bMERB domain, human, residues 1060-1212 as the wild-type construct; numbers on isoform 1 (Q8NDI1-1); source: E. coli BL21 DE3-RIL, purified
T6 sequence (Q8NDI1 1060-1212 R1189A): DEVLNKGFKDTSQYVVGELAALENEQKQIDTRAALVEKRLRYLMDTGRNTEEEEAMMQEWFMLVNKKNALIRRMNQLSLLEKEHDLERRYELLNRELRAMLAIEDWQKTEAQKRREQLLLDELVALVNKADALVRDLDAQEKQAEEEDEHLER
Described as above.

Assay [12] has as its target B5. Described as above.
For assay [13], the target named is T7, Rab8a_(1-176_T72E) (phosphomimetic Rab8a) (human, UniProt P61006 1-176, T72E).
T7 construct: Rab8a G-domain, human, residues 1-176, phosphomimetic switch II mutant; also called Rab8a_(T72E)
T7 sequence (looked up): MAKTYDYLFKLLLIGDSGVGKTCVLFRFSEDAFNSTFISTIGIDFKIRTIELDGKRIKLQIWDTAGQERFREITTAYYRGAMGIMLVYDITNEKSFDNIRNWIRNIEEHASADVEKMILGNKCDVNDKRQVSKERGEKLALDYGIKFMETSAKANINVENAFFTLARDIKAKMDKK
The assay is described as above.

Assay [14] has as its target T8, Rab10_(1-175) (human Rab10 G-domain) (human, UniProt P61026 1-175).
T8 construct: Rab10 G-domain, human, residues 1-175
T8 sequence (looked up): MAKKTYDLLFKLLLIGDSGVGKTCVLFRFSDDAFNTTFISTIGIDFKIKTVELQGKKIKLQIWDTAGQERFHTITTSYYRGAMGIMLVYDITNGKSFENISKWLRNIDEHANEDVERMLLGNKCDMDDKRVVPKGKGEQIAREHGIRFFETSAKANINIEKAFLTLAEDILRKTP
Described as above.

The target in assay [15] is T9, Rab10_(1-175_T73E) (phosphomimetic Rab10) (human, UniProt P61026 1-175, T73E).
T9 construct: Rab10 G-domain, human, residues 1-175, phosphomimetic switch II mutant; also called Rab10_(T73E); 10_(T73E)
T9 sequence (looked up): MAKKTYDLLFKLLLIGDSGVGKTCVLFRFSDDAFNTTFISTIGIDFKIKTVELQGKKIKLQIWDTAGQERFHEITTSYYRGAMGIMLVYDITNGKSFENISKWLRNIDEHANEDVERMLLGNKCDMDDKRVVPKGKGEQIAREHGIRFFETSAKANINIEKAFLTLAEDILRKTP
The assay can be described thus: SEC; analytical SEC, Superdex 75 10/300 GL; 110 µM bMERB domain mixed with 121 µM GppNHp Rab (1:1.1); 20 mM Hepes 7.5, 50 mM NaCl, 1 mM MgCl2, 2 mM DTE; room temperature. On the technique in general: SEC sorts molecules by how far they enter the pores of the column.

The target of assay [16] is B5. The assay can be described thus: stopped-flow fluorescence kinetics; association: 0.5 µM mantGppNHp Rab8a_(1-176) with 1.5–8 µM bMERB domain, pseudo first order; koff from the y-axis intercept; Rab buffer, 25 °C.
Assay [17] deals with B5. The assay can be described thus: stopped-flow fluorescence kinetics; dissociation: complex of mantGppNHp Rab8a_(1-176) with the bMERB domain (2 µM) mixed with a 20-fold excess of unlabeled GppNHp Rab8a_(1-176); 25 °C.
For assay [18], the target named is B5. The assay can be described thus: crystal structure; sitting-drop vapor diffusion, 20 °C; 300–400 µM 1:1 complexes.

T2 sequence (Q8NDI1 1060-1212 L1179S): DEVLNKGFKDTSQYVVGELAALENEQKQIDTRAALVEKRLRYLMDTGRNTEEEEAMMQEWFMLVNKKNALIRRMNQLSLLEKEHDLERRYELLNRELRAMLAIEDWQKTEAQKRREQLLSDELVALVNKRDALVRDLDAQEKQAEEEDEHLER
T1 sequence (Q8NDI1 1060-1212 L1156S): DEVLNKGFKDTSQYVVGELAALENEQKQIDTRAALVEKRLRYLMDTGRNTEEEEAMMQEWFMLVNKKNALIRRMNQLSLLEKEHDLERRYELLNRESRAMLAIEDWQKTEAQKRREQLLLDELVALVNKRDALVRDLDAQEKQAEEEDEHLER

B1: the Kd in [1] was determined as 1200 nM; in assay [2], 9340 ± 1860 nM. Also, the “stoichiometry N” value in assay [1] is 1.

B2: Cy3 labeled EHBP1 CH domain (domain or fragment, human)
chain: GRKPNASQSLLVWCKEVTKNYRGVKITNFTTSWRNGLSFCAILHHFRPDLIDYKSLNPQDIKENNKKAYDGFASIGISRLLEPSDMVLLAIPDKLTVMTYLYQIRAHFSGQ
modifications: Cy3 on the N-terminus
notes: EHBP1 central CH domain, human; also called Cy3-CH; source: E. coli BL21 DE3-RIL, purified; labelled with Cy3-thioester
In assay [3], B2 showed a Kd of 3750 to 4230 nM, a koff of 104 s⁻¹ and a kon of 2.76e+07 M⁻¹ s⁻¹. The molecule further displayed a koff in assay [4] of 117 s⁻¹.

B3: EHBP1 bMERB_(H1-2) (bMERB domain lacking the C-terminal helix) (domain or fragment)
chain: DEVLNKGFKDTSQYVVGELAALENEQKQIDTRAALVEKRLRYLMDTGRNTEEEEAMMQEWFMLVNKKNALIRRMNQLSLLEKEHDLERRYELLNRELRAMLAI
For the molecule B3, the Kd in assay [5] is 780 nM. In other words, the sub-micromolar range.

B4: EHBP1 CH domain D532A (domain or fragment, human)
chain: GRKPNASQSLLVWCKEVTKNYRGVKITNFTTSWRNGLSFCAILHHFRPDLIDYKSLNPQDIKENNKKAYDGFASIGISRLLEPSDMVLLAIPAKLTVMTYLYQIRAHFSGQ
notes: EHBP1 CH domain, human; numbers on isoform 1 (Q8NDI1-1); source: E. coli BL21 DE3-RIL, purified
Consider B4, for which the “fold reduction in binding affinity against the wild-type CH domain” value in assay [1] was above 40 fold.
As to B5, in [6], the “fold reduction in affinity against the wild-type bMERB domain” value was found to be 47 fold. Besides, the “fold decrease in binding affinity against the wild-type bMERB domain” value in [7] and in assay [8] was 10 fold in each case. Further, the figures for the “fold reduction in binding affinity against the wild-type bMERB domain” value in [9], in [10] and in [11] were above 30 fold, 5 fold and 20 fold, respectively.

B6: EHBP1 bMERB domain Q1176A (domain or fragment)
chain: not shown
notes: EHBP1 bMERB domain, human, residues 1060-1212 as the wild-type construct; numbers on isoform 1 (Q8NDI1-1); source: E. coli BL21 DE3-RIL, purified
As to B6, the binding result in assay [12] is reported as “binds”.

B7: EHBP1 bMERB domain lacking the N-terminal helix (helices 2-3) (domain or fragment)
chain: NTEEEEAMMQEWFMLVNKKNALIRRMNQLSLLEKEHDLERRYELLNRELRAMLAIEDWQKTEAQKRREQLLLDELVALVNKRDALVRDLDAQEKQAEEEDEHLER
With B7, the Kd in [12] was 300 nM. This counts as sub-micromolar.
For B8, the Kd in assay [12] was found to be 310 nM; in [16], 480 nM. In addition, the binding result in assay [13], in [14] and in assay [15] was “binds” throughout. Further, the values for the koff in [16] and in assay [17] were 13.4 s⁻¹ and 13.8 s⁻¹, respectively. In assay [16], this molecule yielded a kon of 2.79e+07 M⁻¹ s⁻¹.

B9: EHBP1 full-length bMERB domain M1116A (domain or fragment)
chain: not shown
notes: EHBP1 full-length bMERB domain, human, residues 1060-1212 as the wild-type construct; numbers on isoform 1 (Q8NDI1-1); also called bMERB_(M1116A); source: E. coli BL21 DE3-RIL, purified
As to B9, in assay [18], the binding result is reported as “binds”.

B10: EHBP1 full-length bMERB domain F1120A (domain or fragment)
chain: not shown
notes: EHBP1 full-length bMERB domain, human, residues 1060-1212 as the wild-type construct; numbers on isoform 1 (Q8NDI1-1); also called bMERB_(F1120A); source: E. coli BL21 DE3-RIL, purified
With B10, in assay [18], the binding result is reported as “binds”.

A word on the Kd: it is the constant that tells how readily two partners part at equilibrium. One may read the stoichiometry N as the number of molecules, sites or subunits per partner or assembly. What is called koff is a measure of how fast the partners let go of each other. Lower therefore signals a long-lived complex. Usually kon stands for the rate constant with which the complex forms. A lower kon goes with slow association.
